The Kd is a measure of binding affinity in units of concentration. For orientation: stoichiometry N means the number of molecules, sites or subunits per partner or assembly.

“And” between values parts separate entries of the source, which are not always exact repeats. Identical values can stand only once.

The results in this text go back to paper PMC11187062, “Structure of human DPPA3 bound to the UHRF1 PHD finger reveals its functional and structural differences from mouse DPPA3” (Communications Biology, 2024).

Settings in all cases: both partners purified
The target in test [1] is T1, human UHRF1 PHD finger (residues 299-366) (human, UniProt Q96T88 299-366).
T1 construct: UHRF1 (ubiquitin-like PHD and RING finger domain-containing protein 1), human, PHD finger, residues 299-366; also called hPHD; hUHRF1 PHD finger; source: E. coli, expressed as a GST-fusion protein, purified (glutathione Sepharose 4B, HiTrap Q, Superdex 75)
T1 sequence (looked up): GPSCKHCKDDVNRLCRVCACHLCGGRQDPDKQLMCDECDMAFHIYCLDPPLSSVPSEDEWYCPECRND
Kind of test: ITC; Microcal PEAQ-ITC, 293 K, 10 mM HEPES pH 7.5, 150 mM NaCl, 0.25 mM TCEP; one-site model; n = 3. For orientation: In ITC the heat of successive injections is recorded.

Test [2] concerns the target T2, human UHRF1 PHD finger, residues 299-366 (human, UniProt Q96T88 299-366).
T2 construct: UHRF1 (ubiquitin-like PHD and RING finger domain-containing protein 1), human, PHD finger, residues 299-366; also called hPHD; hUHRF1 PHD finger; source: E. coli, expressed as a GST-fusion protein, purified (glutathione Sepharose 4B, HiTrap Q, Superdex 75)
T2 sequence (looked up): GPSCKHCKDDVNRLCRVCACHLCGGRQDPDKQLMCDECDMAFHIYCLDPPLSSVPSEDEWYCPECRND
Kind of test: ITC; Microcal PEAQ-ITC, 293 K, 10 mM HEPES pH 7.5, 150 mM NaCl, 0.25 mM TCEP, one-site model; which partner was titrated is not stated; single titrations and their means.

Test [3] has as its target T3, human UHRF1 PHD finger, residues 299-366, M332A (human, UniProt Q96T88 299-366, M332A).
T3 construct: UHRF1, human, PHD finger, residues 299-366, with M332A; also called hPHD M332A; source: E. coli, expressed as a GST-fusion protein, purified
T3 sequence (looked up): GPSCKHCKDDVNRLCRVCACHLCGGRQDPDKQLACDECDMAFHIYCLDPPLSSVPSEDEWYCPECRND
Described as above.

In test [4] the target is T4, human UHRF1 PHD finger, residues 299–366 (human, UniProt Q96T88 299-366).
T4 construct: UHRF1 (ubiquitin-like PHD and RING finger domain-containing protein 1), human, PHD finger, residues 299-366; 15N- or 13C,15N-labelled for NMR; also called hPHD; hUHRF1 PHD finger; source: E. coli, expressed as a GST-fusion protein, purified (glutathione Sepharose 4B, HiTrap Q, Superdex 75)
T4 sequence (looked up): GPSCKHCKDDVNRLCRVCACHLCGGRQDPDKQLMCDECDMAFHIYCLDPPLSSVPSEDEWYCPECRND
Kind of test: SEC-SAXS; 12 mg/ml hPHD:hDPPA3_(81-118) complex on Superdex 200 Increase 5/150 GL, 20 mM Tris-HCl pH 7.5, 150 mM NaCl, 2 mM DTT, 10 µM zinc acetate, 5% glycerol, 20 °C. On the technique in general: SEC sorts molecules by how far they enter the pores of the column.

For another test, the target named is T5, hPHD M332A (human, UniProt Q96T88 299-366, M332A).
T5 construct: UHRF1, human, PHD finger, residues 299-366; also called M332A hPHD mutation; source: E. coli, site-directed mutant of hPHD; purification of the hPHD mutants not described separately
T5 sequence (looked up): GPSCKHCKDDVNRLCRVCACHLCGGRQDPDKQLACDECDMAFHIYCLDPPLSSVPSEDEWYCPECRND
Kind of test: ITC; Microcal PEAQ-ITC, 293 K, 10 mM HEPES pH 7.5, 150 mM NaCl, 0.25 mM TCEP; one-site model; at least three independent titrations.

Test [5] has as its target T4, human UHRF1 PHD finger, residues 299–366. The test is described as above.
The target of test [6] is T1, human UHRF1 PHD finger (residues …). Kind of test: ITC; Microcal PEAQ-ITC, 293 K, 10 mM HEPES pH 7.5, 150 mM NaCl, 0.25 mM TCEP; one-site model; n = 3. The source holds these as a separate data set.
For test [7], the target named is T2, human UHRF1 PHD finger, residues 299-366. Kind of test: ITC; Microcal PEAQ-ITC, 293 K, 10 mM HEPES pH 7.5, 150 mM NaCl, 0.25 mM TCEP, one-site model; which partner was titrated is not stated; single titrations and their means. The source holds these as a separate data set.

B1: K95P substituted hDPPA3_(81-118) (peptide, UniProt Q6W0C5 81-118, looked up)
chain: SRRGVRTLLSVQREPMARLRYMLLGGVRTHERRPTNKE
notes: also called K95P mutant of hDPPA3; source: bought: Toray Research Center (Tokyo, Japan)
In test [1], B1 registered a Kd of 1260 nM. This counts as single-digit micromolar.

B2: human DPPA3, residues 81-118 (domain or fragment)
chain: SRRGVRTLLSVQREKMARLRYMLLGGVRTHERRPTNKE
notes: also called hDPPA3 WT; source: E. coli BL21 (DE3), His-Ub fusion, purified (Ni Sepharose, YUH1 cleavage, HiTrap SP, Superdex 75)
As for B2, the Kd in test [2] was 918 nM and 804 nM and 921 nM and 831 nM; in test [3], 9490 nM and 6150 nM and 8570 nM.

B3: human DPPA3, residues 81–118 (recombinant) (domain or fragment)
chain: SRRGVRTLLSVQREKMARLRYMLLGGVRTHERRPTNKE
notes: Used for SAXS, NMR, CD, ITC and ubiquitination experiments; also called hDPPA3; source: E. coli BL21 (DE3), His-Ub fusion, purified (Ni Sepharose, YUH1 cleavage, HiTrap SP, Superdex 75)
Turning to B3, in test [4], the “stoichiometry N” value is 1. Also, the Kd worked out at 8070 nM with hPHD M332A and 868 nM in test [5].

B4: hDPPA3_(81-118) R86A/T87A (domain or fragment, human, UniProt Q6W0C5 81-118, looked up)
chain: SRRGVAALLSVQREKMARLRYMLLGGVRTHERRPTNKE
notes: source: E. coli BL21 (DE3), His-Ub fusion, purified by the same protocol as the wild type
B4 had a Kd in test [5] above 85000 nM.

B5: hDPPA3 residues 81-118, M96A/L99A (peptide, UniProt Q6W0C5 81-118, looked up)
chain: SRRGVRTLLSVQREKAARARYMLLGGVRTHERRPTNKE
notes: source: E. coli BL21 (DE3), purified (Ni Sepharose, His-Ub removed by YUH1, HiTrap SP, Superdex 75)
As to B5, binding in test [6] was characterised by a dissociation constant (Kd) of 550 nM.

B6: hDPPA3 residues 81-118, R98A/M102A (peptide, UniProt Q6W0C5 81-118, looked up)
chain: SRRGVRTLLSVQREKMAALRYALLGGVRTHERRPTNKE
notes: as for B5
For B6, in test [6], binding was characterised by a dissociation constant (Kd) of 352 nM.

B7: human DPPA3, residues 81-118, R93P/A97P (domain or fragment, UniProt Q6W0C5 81-118, looked up)
chain: SRRGVRTLLSVQPEKMPRLRYMLLGGVRTHERRPTNKE
notes: also called hDPPA3_mutant4_R93PA97P; source: E. coli BL21 (DE3), His-Ub fusion, purified by the same protocol as the wild type
B7: in test [7], the Kd is 11200 nM and 9620 nM and 7360 nM.

B8: human DPPA3, residues 81-118, R98A/M102A (domain or fragment, UniProt Q6W0C5 81-118, looked up)
chain: SRRGVRTLLSVQREKMAALRYALLGGVRTHERRPTNKE
notes: also called hDPPA3_mutant1_R98AM102A; source: E. coli BL21 (DE3), His-Ub fusion, purified by the same protocol as the wild type
Consider B8, for which the Kd in test [7] was 639 nM and 460 nM and 552 nM.

B9: human DPPA3, residues 81-118, L88A/V91A (domain or fragment, UniProt Q6W0C5 81-118, looked up)
chain: SRRGVRTALSAQREKMARLRYMLLGGVRTHERRPTNKE
notes: DPPA3, human, with L88A and V91A; named only in the sheet; also called hDPPA3_mutant2_L88AV91A
Consider B9, for which, in test [7], the Kd is 2890 nM and 1670 nM and 1870 nM.

B10: hDPPA3_(81-118) R93P/A97P (domain or fragment, human, UniProt Q6W0C5 81-118, looked up)
chain: SRRGVRTLLSVQPEKMPRLRYMLLGGVRTHERRPTNKE
notes: as for B4
B10 yielded a dissociation constant (Kd) in test [5] of 9390 nM.

B11: hDPPA3_(81-118) R86A (domain or fragment, human, UniProt Q6W0C5 81-118, looked up)
chain: SRRGVATLLSVQREKMARLRYMLLGGVRTHERRPTNKE
notes: as for B4
In turn, B11 had a Kd in test [5] of 20000 nM.

B12: hDPPA3_(81-118) T87A (domain or fragment, human, UniProt Q6W0C5 81-118, looked up)
chain: SRRGVRALLSVQREKMARLRYMLLGGVRTHERRPTNKE
notes: as for B4
In test [5], B12 had a Kd of 16500 nM.

B13: human DPPA3, residues 81-118, M96A/L99A (domain or fragment, UniProt Q6W0C5 81-118, looked up)
chain: SRRGVRTLLSVQREKAARARYMLLGGVRTHERRPTNKE
notes: also called hDPPA3_mutant3_M96AL99A; source: E. coli BL21 (DE3), His-Ub fusion, purified by the same protocol as the wild type
In the case of B13, the Kd in test [7] was 355 nM and 347 nM.
